Measured values reported in US20170349667A1 (ARGEN X B V, published 2017).
Numbering of substitutions follows the chain as printed.

Legend:
[1] = target: T1, recombinant dimeric c-Met (R&D systems, 358-MT/CF) (human, UniProt P08581 25-932); assay: competition ELISA: recombinant dimeric c-Met captured on the plate, mAb dilutions, then 25 ng/ml N-terminally biotinylated HGF as competitor, strep-HRP, 620 nm; % competition against the controls
T1 construct: bought protein; also called recombinant c-Met; Fc-Met; not shown: C-terminal Fc portion (captured with anti-human Fc) and a His tag (captured with anti-His)
Protocol: Competition with N-terminally biotinylated HGF for binding to immobilized c-Met was performed using an ELISA-based competition assay. Five μg/ml mouse anti-His antibodies (Serotech) was immobilized on a maxisorb plate and, after blocking with 1% casein in PBS for 2 h, 100 ng/ml recombinant dimeric c-Met was added and incubated for 1 h at room temperature. After washing, dilutions of the antibodies were added and allowed to bind to the captured c-Met for 30 minutes, before 25 ng/ml N-terminally biotinylated HGF (R&D systems, 294-HGN/CF) was added. Biotinylated HGF was incubated at room temperature for 1 h before washing. Horseradish-conjugated streptavidin (strep-HRP) was added and incubated for an additional hour. TMB was added and the plate read at 620 nm. An isotype control (hIgG1λ) was included as a control as well as murine 5D5 antibody. Competition was expressed as percentage competition as compared to the controls (strep-HRP only or hIgG1λ) and plotted against the concentration of antibodies. An IC₅₀ was calculated using GraphPad Prism (Table 10). Antibodies 13E6 and 20A11 only displaced HGF partially (about 50%), which may be related to the epitope these two mAbs recognize on the c-Met.

[2] = target: T2, Decoy c-Met (extracellular domain of human c-Met) (human, Glycoprotein. In cells it is cleaved by furin after residue 307 into disulfide-linked alpha and beta parts; written here as one chain.); assay: binding ELISA, human c-Met (Decoy)
T2 construct: construct after Basilico et al. 2008; also called Decoy Met; monomeric Decoy Met
T2 chain: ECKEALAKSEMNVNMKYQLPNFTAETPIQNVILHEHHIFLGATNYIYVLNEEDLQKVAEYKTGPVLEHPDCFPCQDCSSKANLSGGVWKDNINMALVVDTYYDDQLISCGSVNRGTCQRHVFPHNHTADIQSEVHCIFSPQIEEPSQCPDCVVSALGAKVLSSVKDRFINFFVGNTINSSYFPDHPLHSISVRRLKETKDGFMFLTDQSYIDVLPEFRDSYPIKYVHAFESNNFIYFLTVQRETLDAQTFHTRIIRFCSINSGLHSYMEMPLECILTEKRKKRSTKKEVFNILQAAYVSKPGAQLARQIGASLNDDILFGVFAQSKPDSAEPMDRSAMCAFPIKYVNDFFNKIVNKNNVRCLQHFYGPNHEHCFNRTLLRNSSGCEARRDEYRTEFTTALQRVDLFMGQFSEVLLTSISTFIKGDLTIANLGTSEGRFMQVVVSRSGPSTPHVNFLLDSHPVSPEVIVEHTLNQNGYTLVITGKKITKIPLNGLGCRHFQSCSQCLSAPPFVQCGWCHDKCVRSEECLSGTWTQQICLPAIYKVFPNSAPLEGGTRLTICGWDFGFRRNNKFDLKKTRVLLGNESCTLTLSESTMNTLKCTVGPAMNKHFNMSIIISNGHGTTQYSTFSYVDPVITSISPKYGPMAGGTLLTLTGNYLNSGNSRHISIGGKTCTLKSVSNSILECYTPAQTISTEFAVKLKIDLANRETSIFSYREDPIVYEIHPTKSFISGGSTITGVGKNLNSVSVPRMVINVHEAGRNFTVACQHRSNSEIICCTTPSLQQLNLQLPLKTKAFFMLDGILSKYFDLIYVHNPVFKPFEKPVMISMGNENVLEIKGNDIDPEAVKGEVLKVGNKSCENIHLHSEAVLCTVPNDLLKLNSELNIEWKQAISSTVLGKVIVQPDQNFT

[3] = target: human c-Met on cells (MKN-45, A549, HPAF, BxPC3) (human, UniProt P08581 25-1390); assay: cell-based or functional assay
[4] = target: llama-human c-Met chimera LP7*(aa523-909), T737I (human; Llama glama); assay: ELISA, mAb coated at 2 µg/ml, chimera added, streptavidin-HRP
Excerpt: (§1) An ELISA was run to investigate the binding of the mAbs to the different chimeras.

[5] = target: T3, llama-human c-Met chimera L19 (aa572-909) (human; Llama glama); assay: as above
T3 construct: label probably LI9
Excerpt: as §1

[6] = target: T4, llama-human c-Met chimera L111 (aa634-909) (human; Llama glama); assay: as above
T4 construct: label probably LI11
Excerpt: as §1

[7] = target: T5, llama-human c-Met chimera L110 (aa608-909) (human; Llama glama); assay: as above
T5 construct: label probably LI10
Excerpt: as §1

[8] = target: T6, llama-human c-Met chimera L18 (aa540-909) (human; Llama glama); assay: as above
T6 construct: label probably LI8
Excerpt: as §1

[9] = target: llama-human c-Met chimera LS1 (aa1-98) (Llama glama; human); assay: as above
Excerpt: as §1

[10] = target: llama-human c-Met chimera LP6 (aa497-909) (human; Llama glama); assay: as above
Excerpt: as §1

[11] = target: T7, human c-Met ECD (aa 25-932) with His tag (human, Glycoprotein. Furin cleavage after residue 307 gives disulfide-linked alpha and beta parts; written here as one chain.); assay: ELISA: 200 ng of recombinant c-Met ECD protein coated, mAb 1 h, HRP goat anti-human antibody, TMB, OD 620 nm
T7 construct: also called human c-Met (WT)
T7 chain: T2 chain
Protocol: 200 ng of the different chimeric recombinant cMet proteins were immobilized on maxisorb plates overnight at 4° C. After washing with PBS, the plates were blocked with 0.1% casein for 2 h at RT, before the mAbs were added and allowed to bind to the c-Met for 1 h at RT. After washing, HRP-conjugated goat anti-human antibody (diluted 1/5000, Jackson Labs) was added and incubated for 1 h at RT before additional washing and addition of TMB. The optical density at 620 nm was read and the values were represented in a graph against the concentration of mAbs.

[12] = target: T8, HMet (human c-Met, control of Table 18) (human); assay: ELISA, mAb coated at 2 µg/ml, c-Met added, streptavidin-HRP
T8 chain: T2 chain
Excerpt: as §1

[13] = target: T9, llama-human c-Met chimera LS4 (aa1-348) (Llama glama; human); assay: ELISA, mAb coated at 2 µg/ml, chimera added, streptavidin-HRP
T9 construct: as LS1
Excerpt: as §1

[14] = target: T10, llama-human c-Met chimera LS3 (aa1-287) (Llama glama; human); assay: as above
T10 construct: as LS1
Excerpt: as §1

[15] = target: T11, llama-human c-Met chimera LS5 (aa1-448) (Llama glama; human); assay: as above
T11 construct: as LS1
Excerpt: as §1

[16] = target: T12, llama-human c-Met chimera LS2 (aa1-199) (Llama glama; human); assay: as above
T12 construct: as LS1
Excerpt: as §1

B1: 40B8 mAb (antibody, human IgG1, V domains shown)
VH: EVQLVQPGAELRNPGASVKVSCKASGYTFTNYVIDWVRQAPGQGLEWMGRIDPENGGTRYAQKFQGRVTFTADTSTSTAYVELSNLRSEDTAVYYCARLEDYELAYDYWGQGTQVTVSS
VL: DIVMTQTPSSVTASAGEKVTINCKSSQSVLLSSNQKNYLAWYQQRLGQSPRLLIYWASTRESGVPDRFSGSGSTTDFTLTISSFQPEDAAVYYCQQGVSFPLTFGQGTKVELK
notes: human IgG1 constant domains and human C kappa
IC50 (read off the curve) [1]: ~0.07 nM | EC50 [2]: 0.14 nM | antibody-induced proliferation of BxPC3 cells (agonism) [3]: < 20 % of the proliferation obtained with 75 ng/ml HGF

B2: 36C4 mAb (antibody, human IgG1, V domains shown)
VH: QVQLVESGPGLVKPSQTLSLTCAVSGGSITTNYYYWSWIRQSPGKGLEWMGVIAYDGSTDYSPSLKSRTSISRDTSKNQFSLQLSSVTPEDTAVYYCARDVRVIATGWATANALDAWGQGTLVTVSS
VL: QSVLTQPPSVSGSPGKTVTISCAGTSSDVGYGNYVSWYQQLPGTAPKLLIFAVSYRASGIPDRFSGSKSGNTAFLTISGLQSEDEADYYCASYRSSNNAAVFGGGTHLTVL
notes: human IgG1 constant domains and human C lambda
EC50 [4]: 0.055 µg/mL | EC50 [5]: 0.047 µg/mL | EC50 [6]: 0.045 µg/mL | EC50 [7]: 0.047 µg/mL | EC50 [8]: 0.047 µg/mL | EC50 [9]: 0.068 µg/mL | EC50 [10]: 0.05 µg/mL | EC50 [2]: 0.13 nM | EC50 (read off the curve) [11]: ~0.6 nM | antibody-induced proliferation of BxPC3 cells (agonism) [3]: < 20 % of the proliferation obtained with 75 ng/ml HGF | EC50 [12]: 0.06 µg/mL

B3: 38H10 mAb (antibody, human IgG1, V domains shown)
VH: EVQLVQPGVELRNPGASVKVSCKASGYIFTMNSIDWVRQAPGQGLEWMGRIDPEDGGTKYAQKFQGRVTFTADTSTSTAYVELNSLRSEDTAVYYCARVDDYYLGYDYWGQGTQVTVSS
VL: EIVMTQSPSSVTASAGEKVTINCKSSQSVLWRSNQKNYLAWYQQRLGQSPRLLISWASIRESGVPDRFSGSGSTTDFTLTISSFQPEDAAVYYCQQGYSFPYTFGSGTRLEIK
notes: as for B1
EC50 [2]: 0.19 nM | antibody-induced proliferation of BxPC3 cells (agonism) [3]: < 20 % of the proliferation obtained with 75 ng/ml HGF

B4: 48A2 mAb (antibody, human IgG1, V domains shown)
VH: B3 VH
VL: DIVMTQTPTSVTASAGDKVTINCKSSQSVLFSSNQKNYLAWYQQRLGQSPRLLIYWASIRESGVPDRFSGSGSATDFTLTISNFQPEDAAVYYCQQGYSFPYSFGSGTRLEIR
notes: VL-shuffled variant of 38H10; human IgG1 and C kappa
EC50 [5]: > 0.04 µg/mL | EC50 [13]: 0.07 µg/mL | EC50 [14]: 0.05 µg/mL | EC50 [15]: 0.05 µg/mL | EC50 [6]: 0.042 µg/mL | EC50 [7]: > 0.04 µg/mL | EC50 [8]: > 0.04 µg/mL | EC50 [9]: 0.031 µg/mL | EC50 [16]: 0.034 µg/mL

B5: murine 5D5 antibody (antibody, V domains shown)
VH: QVQLQQSGPELVRPGASVKMSCRASGYTFTSYWLHWVKQRPGQGLEWIGMIDPSNSDTRFNPNFKDKATLNVDRSSNTAYMLLSSLTSADSAVYYCATYGSYVSPLDYWGQGTSVTVSS
VL: DIMMSQSPSSLTVSVGEKVTVSCKSSQSLLYTSSQKNYLAWYQQKPGQSPKLLIYWASTRESGVPDRFTGSGSGTDFTLTITSVKADDLAVYYCQQYYAYPWTFGGGTKLEIK
IC50 (read off the curve) [1]: ~0.7 nM

B6: 13E6 mAb (antibody, human IgG1, V domains shown)
VH: QVQLQESGGDLVQPGGSLRLSCAASGFTFDDYVMNWVRQAPGKGLEWISAINWNGGSTYYAESMKGRFTISRDNAKNTLYLQMYSLQSDDTAVYYCVKDTVVSGNGYWGQGTQVTVSS
VL: QSVLTQPPSVSGTLGKTVTISCAGTSSDIGDYNYVSWYQQLPGTAPKLLIYDVNKRASGIPDRFSGSKSGNTASLSISGLQSEDEADYYCASYRSRNDYAFGGGTKLTVL
notes: as for B2
EC50 [2]: 0.19 nM | EC50 (read off the curve) [11]: ~1 nM

B7: 20A11 mAb (antibody, human IgG1, V domains shown)
VH: QVQLVESGGGLVQPGGSLRLSCAASGFTFDDYAMSWVRQAPGKGLEWVSAISWNGSSTYYAESMKGRFTISRDNAKNTLYLQMNSLKSEDTAVYYCAKDLIGSHDYWGQGTQVTVSS
VL: QAVLTQPPSVSGTLGKTLTISCAGTSSDVGYGNYVSWYQQLPGTAPKLLIYAVSTRASGIPDRFSGSKSGNTASLTISGLQSEDEADYYCASYRSSNNYAFGAGTKLTVL
notes: as for B2
EC50 [2]: 4.3 nM

B8: 12G4 mAb (antibody, human IgG1, V domains shown)
VH: QLQLVESGGGMAQPGGSLKLSCAASGFTFDDYAMTWVRQAPGKGLEWLSTISWNDINTYYAESMKDRFTISRDNAKNTLYLQMNSLESEDTAVYYCAKRRDNYYGTSGEYDYWGQGTQVTVSS
VL: B6 VL with V3A, D31N, D52E, A57P, R96S, D98N, Y99V, A100V
notes: llama VH/V lambda fused to human IgG1 constant domains and human C lambda
EC50 [2]: 0.42 nM
